Drawing on article PMC10773654, this text covers fold BiMC of nanoluciferase relative to the full-length SINV CP protein for one substance.

The target in this test is human Interleukin-1 Receptor Associated Kinase 1 (IRAK1) protein, nanoluciferase BiMC construct (human) (UniProt P51617). The experiment in a line: split reporter.
Sequence of UniProt P51617 (P51617 whole entry): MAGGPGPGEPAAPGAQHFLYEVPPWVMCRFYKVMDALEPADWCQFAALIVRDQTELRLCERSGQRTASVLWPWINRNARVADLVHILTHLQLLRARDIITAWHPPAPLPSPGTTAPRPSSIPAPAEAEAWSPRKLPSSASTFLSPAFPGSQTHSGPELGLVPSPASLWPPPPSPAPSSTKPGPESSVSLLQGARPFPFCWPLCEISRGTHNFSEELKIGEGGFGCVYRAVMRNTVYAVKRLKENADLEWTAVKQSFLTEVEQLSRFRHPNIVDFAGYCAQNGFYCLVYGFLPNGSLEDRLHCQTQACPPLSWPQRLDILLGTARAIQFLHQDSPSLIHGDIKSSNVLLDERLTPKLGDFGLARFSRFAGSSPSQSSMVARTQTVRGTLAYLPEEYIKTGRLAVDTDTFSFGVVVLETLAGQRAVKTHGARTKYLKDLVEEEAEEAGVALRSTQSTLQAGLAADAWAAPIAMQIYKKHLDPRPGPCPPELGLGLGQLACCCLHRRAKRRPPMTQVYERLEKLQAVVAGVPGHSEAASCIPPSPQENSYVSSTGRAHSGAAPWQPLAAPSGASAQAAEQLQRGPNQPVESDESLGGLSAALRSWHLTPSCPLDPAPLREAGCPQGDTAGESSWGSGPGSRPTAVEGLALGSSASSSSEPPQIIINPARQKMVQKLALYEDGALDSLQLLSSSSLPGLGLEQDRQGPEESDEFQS

With “SINV CP truncation mutant ΔRI (RII and Protease domains) (domain or fragment)”, the fold BiMC of nanoluciferase relative to the full-length SINV CP protein came out at 2 fold.
